Measured values as given in patent publication US20250218531A1 (ABSCI, published 2025).

Legend:
[1] = target: T1, SARS-COV2 Spike RBD, Beta (SARS-CoV-2, UniProt P0DTC2 319-541); assay: SPR; 'N/A indicates a lack of binding'
T1 construct: domain: RBD

[2] = target: T2, SARS-COV2 Spike RBD, Delta (SARS-CoV-2, UniProt P0DTC2 319-541); assay: SPR; 'N/A indicates a lack of binding'
T2 construct: domain: RBD

B1: AI-Designed Binder (de novo casirivimab HCDR3 variant) (Fab, V domains shown)
VH: QVQLVESGGGLVKPGGSLRLSCAASGFTFSDYYMSWIRQAPGKGLEWVSYITYSGSTIYYADSVKGRFTISRDNAKSSLYLQMNSLRAEDTAVYYCARDWGQTWDSYFDYWGQGTLVTVSS
VL: DIQMTQSPSSLSASVGDRVTITCQASQDITNYLNWYQQKPGKAPKLLIYAASNLETGVPSRFSGSGSGTDFTFTISGLQPEDIATYYCQQYDNLPLTFGGGTKVEIKR
notes: Fab format
B1: no binding [1]; no binding [2].
